B1: Multiple coagulation factor deficiency protein 2 (Homo sapiens), Q8NI22 (parent)
chain: MTMRSLLRTPFLCGLLWAFCAPGARAEEPAASFSQPGSMGLDKNTVHDQEHIMEHLEGVINKPEAEMSPQELQLHYFKMHDYDGNNLLDGLELSTAITHVHKEEGSEQAPLMSEDELINIIDGVLRDDDKNNDGYIDYAEFAKSLQ
partner: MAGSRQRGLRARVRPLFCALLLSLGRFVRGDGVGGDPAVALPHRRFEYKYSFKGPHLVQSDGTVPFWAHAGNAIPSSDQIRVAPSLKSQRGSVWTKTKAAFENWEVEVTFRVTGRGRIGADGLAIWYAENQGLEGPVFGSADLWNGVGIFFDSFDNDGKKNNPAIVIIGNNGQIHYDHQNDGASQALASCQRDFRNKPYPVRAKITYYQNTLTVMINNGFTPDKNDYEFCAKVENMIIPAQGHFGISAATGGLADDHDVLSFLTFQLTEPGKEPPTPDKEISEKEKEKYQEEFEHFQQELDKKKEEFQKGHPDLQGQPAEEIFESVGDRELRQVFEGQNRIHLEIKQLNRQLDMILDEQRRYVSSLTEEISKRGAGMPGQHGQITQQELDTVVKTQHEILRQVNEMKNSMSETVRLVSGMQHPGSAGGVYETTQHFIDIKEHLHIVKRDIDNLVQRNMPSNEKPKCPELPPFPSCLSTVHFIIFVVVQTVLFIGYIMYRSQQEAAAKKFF
B2: Protein ERGIC-53 (Homo sapiens), P49257 (parent)
chain: B1 partner
partner: B1 chain

Variants of: B1
Details: with lman1_human LMAN1, P49257

effect of a mutation on the interaction	Variant
disrupting interaction	D122V

Variants of: B1
Details: with lman1_human LMAN1, P49257
Remark: another data set of the same source

effect of a mutation on the interaction	Variant
decreasing interaction	D122V

Variants of: B1
Details: with lman1_human LMAN1, P49257
Remark: another data set of the same source

effect of a mutation on the interaction	Variant
disrupting interaction	D89A

Variants of: B2
Details: with mcfd2_human MCFD2, Q8NI22

effect of a mutation on the interaction	Variant
decreasing interaction	R45A

From IntAct's records for PubMed 20142513
